Test [1] concerns activated partial thromboplastin time. The test is described as follows: Increase in APTT, bolus plus infusion model. Also on record: Infusion Dose needed to cause 2-4 fold increase in APTT: unit not given here. The settings on record: intravenous bolus followed by infusion. The class given is in vivo, rat.
For test [2], the system named is arteriovenous shunt occlusion. Description: Antithrombotic activity in the arteriovenous shunt model. The settings on record: rats, 5 min after intravenous administration.
The subject of test [3] is carotid artery thrombosis. The test is described as follows: Ferric chloride injury-induced thrombosis model in carotid artery. The settings on record: rat carotid artery, FeCl3 injury; control patency time 19 ± 1 min.
Experimental: Species: Rat, male, Sprague-Dawley.
Animals were laid on a heating pad which was maintained at 37° C. The carotid artery was approached through a midline cervical incision. Carefully blunt dissection was used to expose and isolate the vessel from the carotid sheath. […] The vessel temperature was monitored for 60 minutes after application of FeCl3. […] The site of the experiment was covered with aluminum foil in order to protect the FeCl3 from degradation by light.
All the samples were kept on ice and centrifuged as soon as possible at 2000 Rpm for 10 min., 4° C. The plasma was analyzed in duplicate for activated partial thromboplastin time on a haemostasis analyzer (STAGO ST4™).
From a group of four animals, two arteries were stored at -80° C. for further analysis. The others were observed under a light microscope at 40× (Leica™) for quantification of the occlusion (complete, partial, no occlusion).
In some studies, the animal was receiving the compound by i.v. infusion instead of a bolus. In this case, the jugulars and femoral veins were cannulated with Sylastic tubing (I.D. 0.025IN). This left jugular was used for blood sampling and the right one for the infusion line. The compound was infused 30 minutes before injury and then for an other 30 minutes post-injury. Blood samples were taken at time 0, 30 and 60 minutes for APTT test and thrombin test (1 ml of blood/90 ul of citrated buffer).

This is an account of results in patent publication US6060451A, “Thrombin inhibitors based on the amino acid sequence of hirudin” (The National Research Council of Canada, priority 1995, dated 2000).

B1: r-Hirudin: recombinant hirudin (HV-2), thrombin inhibitor protein of the leech Hirudo medicinalis (protein)
chain: ITYTDCTESGQNLCLCEGSNVCGKGNKCILGSNGKGNQCVTGEGTPNPESHNNGDFEEIPEEYLQ
As to B1, in test [1], the “Bolus Dose needed to cause 2-4 fold increase in APTT” value turned out to be 0.15 mg/kg and the “Infusion Dose needed to cause 2-4 fold increase in APTT” value was determined as 15. Also, the “ED15 (dose which causes a prolongation of the time until occlusion of the shunt by 15 min)” value in test [2] is recorded as 1.42 mg/kg. Further, the “Dose to double patency time” value in test [3] came to 1 mg/kg.
